Results published in patent US20050043234A1 (published 2005).
Several values for one entry are separate records, joined by “and”; a condition that tells them apart may be missing. Equal entries are not always repeated. One block for each binder: values may come before it.

B1: zFGF5 (ligand)
chain: EENVDFRIHVENQTRARDDVSRKQLRLYQLYSRTSGKHIQVLGRRISARGEDGDKYAQLLVETDTFGSQVRIKGKETEFYLCMNRKGKLVGKPDGTSKECVFIEKVLENNYTALMSAKYSGWYVGFTKKGRPRKGPKTRENQQDVHFMKRYPKGQPELQKPFKYTTVTKRSRRIRPTHPA

Tests used:
Assay in all cases: cell-based or functional assay
FGFR2α-IIIc [1] = target: FGFR2α-IIIc
FGFR3α-IIIc [2] = target: FGFR3α-IIIc
FGFR1α-IIIb = target: FGFR1α-IIIb
FGFR2α-IIIb = target: FGFR2α-IIIb
FGFR2α-IIIc [3] = target: FGFR2α-IIIc; remark: listed apart in the source
FGFR3α-IIIc [4] = target: FGFR3α-IIIc; remark: listed apart in the source
FGFR1α-IIIc = target: FGFR1α-IIIc
FGFR3α-IIIb = target: FGFR3α-IIIb
zFGF5 = target: B1

Binder: B1
- EC50 of cell proliferation response (FGFR2α-IIIc [1]): ~10 ng/mL and ~20 ng/mL
- EC50 of cell proliferation response (FGFR3α-IIIc [2]): ~1 ng/mL and ~2 ng/mL
- Alamar Blue Units (cell proliferation), zFGF5 at 1.6 ng/ml (FGFR1α-IIIb): 0 Alamar Blue Units
- Alamar Blue Units (cell proliferation), zFGF5 at 3.1 ng/ml (FGFR1α-IIIb): 1.7 Alamar Blue Units
- Alamar Blue Units (cell proliferation), zFGF5 at 6.2 ng/ml (FGFR1α-IIIb): 1.3 Alamar Blue Units
- Alamar Blue Units (cell proliferation), zFGF5 at 12.5 ng/ml (FGFR1α-IIIb): 0 Alamar Blue Units
- Alamar Blue Units (cell proliferation), zFGF5 at 25 ng/ml (FGFR1α-IIIb): 10.9 Alamar Blue Units
- Alamar Blue Units (cell proliferation), zFGF5 at 50 ng/ml (FGFR1α-IIIb): 0 Alamar Blue Units
- Alamar Blue Units (cell proliferation), zFGF5 at 100 ng/ml (FGFR1α-IIIb): 0 Alamar Blue Units
- Alamar Blue Units (cell proliferation), zFGF5 at 200 ng/ml (FGFR1α-IIIb): 0 Alamar Blue Units
- Alamar Blue Units (cell proliferation), zFGF5 at 1.6 ng/ml (FGFR2α-IIIb): 0.2 Alamar Blue Units
- Alamar Blue Units (cell proliferation), zFGF5 at 3.1 ng/ml (FGFR2α-IIIb): 0.06 Alamar Blue Units
- Alamar Blue Units (cell proliferation), zFGF5 at 6.2 ng/ml (FGFR2α-IIIb): 0 Alamar Blue Units
- Alamar Blue Units (cell proliferation), zFGF5 at 12.5 ng/ml (FGFR2α-IIIb): 0.4 Alamar Blue Units
- Alamar Blue Units (cell proliferation), zFGF5 at 25 ng/ml (FGFR2α-IIIb): 0.2 Alamar Blue Units
- Alamar Blue Units (cell proliferation), zFGF5 at 50 ng/ml (FGFR2α-IIIb): 0.5 Alamar Blue Units
- Alamar Blue Units (cell proliferation), zFGF5 at 100 ng/ml (FGFR2α-IIIb): 1.3 Alamar Blue Units
- Alamar Blue Units (cell proliferation), zFGF5 at 200 ng/ml (FGFR2α-IIIb): 1.3 Alamar Blue Units
- Alamar Blue Units (cell proliferation), zFGF5 at 1.6 ng/ml (FGFR2α-IIIc [3]): 241 Alamar Blue Units
- Alamar Blue Units (cell proliferation), zFGF5 at 3.1 ng/ml (FGFR2α-IIIc [3]): 480 Alamar Blue Units
- Alamar Blue Units (cell proliferation), zFGF5 at 6.2 ng/ml (FGFR2α-IIIc [3]): 715 Alamar Blue Units
- Alamar Blue Units (cell proliferation), zFGF5 at 12.5 ng/ml (FGFR2α-IIIc [3]): 977 Alamar Blue Units
- Alamar Blue Units (cell proliferation), zFGF5 at 25 ng/ml (FGFR2α-IIIc [3]): 1310 Alamar Blue Units
- Alamar Blue Units (cell proliferation), zFGF5 at 50 ng/ml (FGFR2α-IIIc [3]): 1520 Alamar Blue Units
- Alamar Blue Units (cell proliferation), zFGF5 at 100 ng/ml (FGFR2α-IIIc [3]): 1720 Alamar Blue Units
- Alamar Blue Units (cell proliferation), zFGF5 at 200 ng/ml (FGFR2α-IIIc [3]): 1790 Alamar Blue Units
- Alamar Blue Units (cell proliferation), zFGF5 at 1.6 ng/ml (FGFR3α-IIIc [4]): 1400 Alamar Blue Units
- Alamar Blue Units (cell proliferation), zFGF5 at 3.1 ng/ml (FGFR3α-IIIc [4]): 2000 Alamar Blue Units
- Alamar Blue Units (cell proliferation), zFGF5 at 6.2 ng/ml (FGFR3α-IIIc [4]): 2580 Alamar Blue Units
- Alamar Blue Units (cell proliferation), zFGF5 at 12.5 ng/ml (FGFR3α-IIIc [4]): 3200 Alamar Blue Units
- Alamar Blue Units (cell proliferation), zFGF5 at 25 ng/ml (FGFR3α-IIIc [4]): 3760 Alamar Blue Units
- Alamar Blue Units (cell proliferation), zFGF5 at 50 ng/ml (FGFR3α-IIIc [4]): 3960 Alamar Blue Units
- Alamar Blue Units (cell proliferation), zFGF5 at 100 ng/ml (FGFR3α-IIIc [4]): 4120 Alamar Blue Units
- Alamar Blue Units (cell proliferation), zFGF5 at 200 ng/ml (FGFR3α-IIIc [4]): 4200 Alamar Blue Units
- Alamar Blue Units (cell proliferation), zFGF5 at 1.6 ng/ml (FGFR1α-IIIc): 2.6 Alamar Blue Units
- Alamar Blue Units (cell proliferation), zFGF5 at 3.1 ng/ml (FGFR1α-IIIc): 4.2 Alamar Blue Units
- Alamar Blue Units (cell proliferation), zFGF5 at 6.2 ng/ml (FGFR1α-IIIc): 14.2 Alamar Blue Units
- Alamar Blue Units (cell proliferation), zFGF5 at 12.5 ng/ml (FGFR1α-IIIc): 29.9 Alamar Blue Units
- Alamar Blue Units (cell proliferation), zFGF5 at 25 ng/ml (FGFR1α-IIIc): 86 Alamar Blue Units
- Alamar Blue Units (cell proliferation), zFGF5 at 50 ng/ml (FGFR1α-IIIc): 224 Alamar Blue Units
- Alamar Blue Units (cell proliferation), zFGF5 at 100 ng/ml (FGFR1α-IIIc): 488 Alamar Blue Units
- Alamar Blue Units (cell proliferation), zFGF5 at 200 ng/ml (FGFR1α-IIIc): 912 Alamar Blue Units
- Alamar Blue Units (cell proliferation), zFGF5 at 1.6 ng/ml (FGFR3α-IIIb): 0 Alamar Blue Units
- Alamar Blue Units (cell proliferation), zFGF5 at 3.1 ng/ml (FGFR3α-IIIb): 0 Alamar Blue Units
- Alamar Blue Units (cell proliferation), zFGF5 at 6.2 ng/ml (FGFR3α-IIIb): 0 Alamar Blue Units
- Alamar Blue Units (cell proliferation), zFGF5 at 12.5 ng/ml (FGFR3α-IIIb): 0 Alamar Blue Units
- Alamar Blue Units (cell proliferation), zFGF5 at 25 ng/ml (FGFR3α-IIIb): 1.4 Alamar Blue Units
- Alamar Blue Units (cell proliferation), zFGF5 at 50 ng/ml (FGFR3α-IIIb): 19 Alamar Blue Units
- Alamar Blue Units (cell proliferation), zFGF5 at 100 ng/ml (FGFR3α-IIIb): 189 Alamar Blue Units
- Alamar Blue Units (cell proliferation), zFGF5 at 200 ng/ml (FGFR3α-IIIb): 472 Alamar Blue Units

- Cell Proliferation (percent of control), BAF3/FGFR3α-IIIc cells with zFGF5, soluble receptor at 0 fold-excess (zFGF5): 100 percent of control
- Cell Proliferation (percent of control), BAF3/FGFR3α-IIIc cells with zFGF5, soluble receptor at 0.8 fold-excess (zFGF5): 85 percent of control
- Cell Proliferation (percent of control), BAF3/FGFR3α-IIIc cells with zFGF5, soluble receptor at 1.6 fold-excess (zFGF5): 66 percent of control
- Cell Proliferation (percent of control), BAF3/FGFR3α-IIIc cells with zFGF5, soluble receptor at 3.2 fold-excess (zFGF5): 37 percent of control
- Cell Proliferation (percent of control), BAF3/FGFR3α-IIIc cells with zFGF5, soluble receptor at 6.3 fold-excess (zFGF5): 5 percent of control
- Cell Proliferation (percent of control), BAF3/FGFR3α-IIIc cells with zFGF5, soluble receptor at 12.5 fold-excess (zFGF5): 1 percent of control
- Cell Proliferation (percent of control), BAF3/FGFR3α-IIIc cells with zFGF5, soluble receptor at 25 fold-excess (zFGF5): 0.2 percent of control
- Cell Proliferation (percent of control), BAF3/FGFR3α-IIIc cells with zFGF5, soluble receptor at 50 fold-excess (zFGF5): 0 percent of control
- Cell Proliferation (percent of control), BAF3/FGFR3α-IIIc cells with zFGF5, soluble receptor at 100 fold-excess (zFGF5): 0 percent of control
B2: FGFR3α-IIIc/Fc (Fc fusion, not shown: a dimerising Fc or GST; small tags and cut ends)
chain: ESLGTEQRVVGRAAEVPGPEPGQQEQLVFGSGDAVELSCPPPGGGPMGPTVWVKDGTGLVPSERVLVGPQRLQVLNASHEDSGAYSCRQRLTQRVLCHFSVRVTDAPSSGDDEDGEDEAEDTGVDTGAPYWTRPERMDKKLLAVPAANTVRFRCPAAGNPTPSISWLKNGREFRGEHRIGGIKLRHQQWSLVMESVVPSDRGNYTCVVENKFGSIRQTYTLDVLERSPHRPILQAGLPANQTAVLGSDVEFHCKVYSDAQPHIQWLKHVEVNGSKVGPDGTPYVTVLKTAGANTTDKELEVLSLHNVTFEDAGEYTCLAGNSIGFSHHSAWLVVLPAEEELVEADEAGSVYAG

- Cell Proliferation (percent of control), BAF3/FGFR3α-IIIc cells with zFGF5, soluble receptor at 0 fold-excess (zFGF5): 100 percent of control
- Cell Proliferation (percent of control), BAF3/FGFR3α-IIIc cells with zFGF5, soluble receptor at 7.5 fold-excess (zFGF5): 92 percent of control
- Cell Proliferation (percent of control), BAF3/FGFR3α-IIIc cells with zFGF5, soluble receptor at 15.4 fold-excess (zFGF5): 96 percent of control
- Cell Proliferation (percent of control), BAF3/FGFR3α-IIIc cells with zFGF5, soluble receptor at 31 fold-excess (zFGF5): 99 percent of control
- Cell Proliferation (percent of control), BAF3/FGFR3α-IIIc cells with zFGF5, soluble receptor at 62.5 fold-excess (zFGF5): 104 percent of control
- Cell Proliferation (percent of control), BAF3/FGFR3α-IIIc cells with zFGF5, soluble receptor at 125 fold-excess (zFGF5): 101 percent of control
- Cell Proliferation (percent of control), BAF3/FGFR3α-IIIc cells with zFGF5, soluble receptor at 250 fold-excess (zFGF5): 100 percent of control
- Cell Proliferation (percent of control), BAF3/FGFR3α-IIIc cells with zFGF5, soluble receptor at 500 fold-excess (zFGF5): 102 percent of control
- Cell Proliferation (percent of control), BAF3/FGFR3α-IIIc cells with zFGF5, soluble receptor at 1000 fold-excess (zFGF5): 92.3 percent of control
B3: FGFR1α-IIIc/Fc (Fc fusion, not shown: a dimerising Fc or GST; small tags and cut ends)
chain: RPSPTLPEQAQPWGAPVEVESFLVHPGDLLQLRCRLRDDVQSINWLRDGVQLAESNRTRITGEEVEVQDSVPADSGLYACVTSSPSGSDTTYFSVNVSDALPSSEDDDDDDDSSSEEKETDNTKPNRMPVAPYWTSPEKMEKKLHAVPAAKTVKFKCPSSGTPNPTLRWLKNGKEFKPDHRIGGYKVRYATWSIIMDSVVPSDKGNYTCIVENEYGSINHTYQLDVVERSPHRPILQAGLPANKTVALGSNVEFMCKVYSDPQPHIQWLKHIEVNGSKIGPDNLPYVQILKTAGVNTTDKEMEVLHLRNVSFEDAGEYTCLAGNSIGLSHHSAWLTVLEALEERPAVMTSPLYLE
